Experimental data from the supplement of paper PMC7877785.
± gives the uncertainty stated by the source.

Assay: self-splicing fitness, log relative to wild type (ln ratio); higher = more splicing; Tetrahymena group I intron in knt gene, E. coli kanamycin selection, DiMSum; sequences stand for … in CUCUCU…GGAGGGAAAAGUUAUCAGGCAUGCACCUGGUAGCUAGUCUUUAAACCAAUAGAUUGCAUCGGUUUAAAAGGCAAGACCGUCAAAUUGCGGGAAAGGGGUCAACAGCCGUUCAGUACCAAGUCUCAGGGGAAACUUUGAGAUGGCCUUGCAAAGGGUAUGGUAAUAAGCUGACGGACAUGGUCCUAACCACGCAGCCAAGUCCUAAGUCAACAGAUCUUCUGUUGAUAUGGAUGCAGUUCACAGACUAAAUGUCGGUCGGGGAAGAUGUAUUCUUCUCAUAAGAUAUAGUCGGACCUCUCCUUAAUGGGAGCUAGCGGAUGAAGUGAUGCAACACUGGAGCCGCUGGGAACUAAUUUGUAUGCGAAAGUAUAUUGAUUAGUUUUGGAGUACUCGUGGUCG
Outline: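 A randomised library covering all eight P1ex-region intron nucleotides was built with the intron in the knt kanamycin-resistance gene on pET-22b(+) and held in E. coli BL21(DE3). Cells were grown overnight at 37°C or 30°C on LB agar, with or without 25 μg/mL kanamycin, plus 100 μg/mL carbenicillin, 50 μM IPTG and 0.2% rhamnose, and pooled colonies were amplicon-sequenced on an Illumina HiSeq 2500. DiMSum fitness is the error-weighted combination of wild-type-normalised replicate fold changes, kanamycin versus none.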

| Sequence | self-splicing fitness (ln) (30 °C) | self-splicing fitness (ln) (37 °C) |
| --- | --- | --- |
| AAGUAGCAAUAUUACGUGUC | -2.83 ± 0.27 | -2.4 ± 0.28 |
| AAUAAGCAAUAUUACGAAUG | -1.37 ± 0.13 | -0.759 ± 0.17 |
| AAUAAGCAAUAUUACGACCG | -0.621 ± 0.12 | 0.329 ± 0.16 |
| AAUAAGCAAUAUUACGAGAG | -2.47 ± 0.14 | -2.01 ± 0.2 |
| AAUAAGCAAUAUUACGAGGC | – | -2.31 ± 0.32 |
| AAUAAGCAAUAUUACGAUGC | -2.4 ± 0.13 | -1.45 ± 0.15 |
| AAUAAGCAAUAUUACGAUUC | -2.44 ± 0.12 | -1.13 ± 0.15 |
| AAUAAGCAAUAUUACGCAAU | -1.59 ± 0.075 | -1.22 ± 0.082 |
| AAUAAGCAAUAUUACGCAUA | -1.59 ± 0.16 | -0.617 ± 0.16 |
| AAUAAGCAAUAUUACGCCCA | 0.0107 ± 0.1 | -0.447 ± 0.15 |
| AAUAAGCAAUAUUACGCUCC | -1.46 ± 0.23 | -0.799 ± 0.24 |
| AAUAAGCAAUAUUACGGAAA | -1.5 ± 0.33 | -2.03 ± 0.39 |
| AAUAAGCAAUAUUACGGAGU | -3.06 ± 0.25 | -2.13 ± 0.32 |
| AAUAAGCAAUAUUACGGGCG | -1.29 ± 0.086 | -0.752 ± 0.095 |
| AAUAAGCAAUAUUACGGUAA | -1.73 ± 0.16 | -1.03 ± 0.11 |
| AAUAAGCAAUAUUACGUACU | 0.573 ± 0.1 | -0.654 ± 0.095 |
| AAUAAGCAAUAUUACGUAUU | -3.58 ± 0.17 | -2.22 ± 0.15 |
| AAUAAGCAAUAUUACGUCCA | -0.808 ± 0.13 | -0.899 ± 0.19 |
| AAUAAGCAAUAUUACGUCCG | -1.15 ± 0.11 | -0.82 ± 0.15 |
| AAUAAGCAAUAUUACGUGCC | – | 0.782 ± 0.26 |
| AAUAAGCAAUAUUACGUGCG | -1.1 ± 0.065 | -0.488 ± 0.083 |
| AAUAAGCAAUAUUACGUGUU | -3.01 ± 0.097 | -2.58 ± 0.13 |
| AAUCAGCAAUAUUACGACAG | -1.31 ± 0.083 | -0.761 ± 0.1 |
| AAUCAGCAAUAUUACGACGA | -0.461 ± 0.082 | 0.386 ± 0.1 |

| Sequence | self-splicing fitness (ln) (30 °C) | self-splicing fitness (ln) (37 °C) |
| --- | --- | --- |
| AAUCAGCAAUAUUACGAGAA | -1.61 ± 0.26 | -1.61 ± 0.2 |
| AAUCAGCAAUAUUACGAUCC | 0.138 ± 0.13 | -0.291 ± 0.17 |
| AAUCAGCAAUAUUACGAUGA | 0.103 ± 0.059 | 0.0645 ± 0.083 |
| AAUCAGCAAUAUUACGCCAU | -2.35 ± 0.19 | -1.76 ± 0.14 |
| AAUCAGCAAUAUUACGCCGA | -1.17 ± 0.09 | -0.332 ± 0.11 |
| AAUCAGCAAUAUUACGCGUU | -0.956 ± 0.057 | -0.765 ± 0.076 |
| AAUCAGCAAUAUUACGGAAA | -1.19 ± 0.099 | 0.0734 ± 0.12 |
| AAUCAGCAAUAUUACGGAUU | -2.89 ± 0.15 | -2.74 ± 0.16 |
| AAUCAGCAAUAUUACGGCGU | 0.47 ± 0.068 | 0.7 ± 0.076 |
| AAUCAGCAAUAUUACGGGGA | -1.82 ± 0.1 | -0.723 ± 0.1 |
| AAUCAGCAAUAUUACGGGGG | -1.11 ± 0.1 | -1.66 ± 0.13 |
| AAUCAGCAAUAUUACGGUAA | 0.0235 ± 0.065 | 0.0455 ± 0.063 |
| AAUCAGCAAUAUUACGGUAG | -1.83 ± 0.092 | -0.774 ± 0.097 |
| AAUCAGCAAUAUUACGUCAU | 0.166 ± 0.064 | 0.337 ± 0.077 |
| AAUCAGCAAUAUUACGUCCU | 0.497 ± 0.09 | 0.632 ± 0.11 |
| AAUCAGCAAUAUUACGUUCC | -2.26 ± 0.24 | -0.62 ± 0.22 |
| AAUGAGCAAUAUUACGAUAG | -3.68 ± 0.27 | -2.04 ± 0.34 |
| AAUGAGCAAUAUUACGAUAU | -3.25 ± 0.25 | -0.861 ± 0.22 |
| AAUGAGCAAUAUUACGCACG | -3.21 ± 0.36 | – |
| AAUGAGCAAUAUUACGCUAC | -3.12 ± 0.27 | -2.84 ± 0.34 |
| AAUGAGCAAUAUUACGGAAG | -3.49 ± 0.3 | -2.63 ± 0.23 |
| AAUGAGCAAUAUUACGGACU | -1.59 ± 0.13 | -2.04 ± 0.19 |
| AAUGAGCAAUAUUACGGAGA | -2.59 ± 0.4 | -2.51 ± 0.34 |
| AAUGAGCAAUAUUACGGAGG | -2.69 ± 0.33 | -2.45 ± 0.38 |

| Sequence | self-splicing fitness (ln) (30 °C) | self-splicing fitness (ln) (37 °C) |
| --- | --- | --- |
| AAUGAGCAAUAUUACGGCUA | -2.14 ± 0.24 | -0.372 ± 0.16 |
| AAUGAGCAAUAUUACGGCUG | -1.52 ± 0.096 | -1.47 ± 0.16 |
| AAUGAGCAAUAUUACGGGCA | -3.76 ± 0.42 | -1.24 ± 0.29 |
| AAUGAGCAAUAUUACGGGGU | -2.97 ± 0.18 | -2.29 ± 0.21 |
| AAUGAGCAAUAUUACGUAGA | -2.46 ± 0.24 | -2.56 ± 0.27 |
| AAUGAGCAAUAUUACGUAGG | -3.19 ± 0.15 | -2.6 ± 0.24 |
| AAUGAGCAAUAUUACGUCGA | -3.56 ± 0.21 | -2.84 ± 0.23 |
| AAUGAGCAAUAUUACGUUUG | -4.24 ± 0.2 | -2.33 ± 0.19 |
| AAUUAGCAAUAUUACGAACG | -0.548 ± 0.13 | -0.153 ± 0.19 |
| AAUUAGCAAUAUUACGACAU | -0.0913 ± 0.013 | -0.0165 ± 0.033 |
| AAUUAGCAAUAUUACGACUG | -1.11 ± 0.1 | -0.677 ± 0.11 |
| AAUUAGCAAUAUUACGAGAC | – | -2.39 ± 0.39 |
| AAUUAGCAAUAUUACGAUUA | -0.375 ± 0.15 | -0.559 ± 0.15 |
| AAUUAGCAAUAUUACGCAUG | -1.7 ± 0.15 | 0.109 ± 0.2 |
| AAUUAGCAAUAUUACGCAUU | -2.52 ± 0.17 | -2.69 ± 0.21 |
| AAUUAGCAAUAUUACGCCGC | -2.94 ± 0.36 | -1.66 ± 0.24 |
| AAUUAGCAAUAUUACGCGAG | -1.84 ± 0.12 | -0.918 ± 0.12 |
| AAUUAGCAAUAUUACGCGGA | -1.56 ± 0.16 | -1.3 ± 0.12 |
| AAUUAGCAAUAUUACGCGGG | -2.73 ± 0.15 | -0.941 ± 0.14 |
| AAUUAGCAAUAUUACGGAUC | -0.415 ± 0.11 | 0.186 ± 0.12 |
| AAUUAGCAAUAUUACGGUCU | -0.43 ± 0.085 | 0.202 ± 0.099 |
| AAUUAGCAAUAUUACGUAAU | -1.92 ± 0.12 | -0.218 ± 0.15 |
| AAUUAGCAAUAUUACGUAGU | -2.9 ± 0.16 | -0.462 ± 0.1 |
| AAUUAGCAAUAUUACGUCAC | -3.93 ± 0.36 | -2.41 ± 0.33 |

| Sequence | self-splicing fitness (ln) (30 °C) | self-splicing fitness (ln) (37 °C) |
| --- | --- | --- |
| AAUUAGCAAUAUUACGUCCU | -0.344 ± 0.11 | 0.561 ± 0.16 |
| AAUUAGCAAUAUUACGUUAG | -4.03 ± 0.28 | -3.13 ± 0.26 |
| AAUUAGCAAUAUUACGUUUU | -1.98 ± 0.13 | -1.21 ± 0.14 |
| ACAAAGCAAUAUUACGAACU | -0.4 ± 0.055 | 0.248 ± 0.075 |
| ACAAAGCAAUAUUACGACGU | 0.0672 ± 0.047 | 0.266 ± 0.06 |
| ACAAAGCAAUAUUACGAGCA | -1.56 ± 0.14 | -0.49 ± 0.12 |
| ACAAAGCAAUAUUACGAUGA | -0.411 ± 0.048 | -0.201 ± 0.058 |
| ACAAAGCAAUAUUACGAUUC | -1.92 ± 0.085 | -0.67 ± 0.1 |
| ACAAAGCAAUAUUACGCCAC | -3.01 ± 0.38 | – |
| ACAAAGCAAUAUUACGCCUU | -2.01 ± 0.075 | -0.625 ± 0.087 |
| ACAAAGCAAUAUUACGCGAA | -2.41 ± 0.096 | -1.13 ± 0.092 |
| ACAAAGCAAUAUUACGCGCG | -1.11 ± 0.078 | -0.453 ± 0.099 |
| ACAAAGCAAUAUUACGGAGG | -2.23 ± 0.078 | -2.17 ± 0.11 |
| ACAAAGCAAUAUUACGUAUG | -3.01 ± 0.12 | -2.13 ± 0.15 |
| ACAAAGCAAUAUUACGUCAC | -4.13 ± 0.18 | -2.53 ± 0.16 |
| ACAAAGCAAUAUUACGUCGC | -2.42 ± 0.11 | -2.23 ± 0.16 |
| ACAAAGCAAUAUUACGUCGG | -2.14 ± 0.11 | -0.989 ± 0.12 |
| ACAAAGCAAUAUUACGUCUA | -2.1 ± 0.083 | -0.824 ± 0.086 |
| ACAAAGCAAUAUUACGUGUU | -3.59 ± 0.17 | -2.61 ± 0.16 |
| ACAAAGCAAUAUUACGUUAC | -4.4 ± 0.22 | -2.42 ± 0.22 |
| ACACAGCAAUAUUACGACAC | -1.35 ± 0.081 | 0.0205 ± 0.11 |
| ACACAGCAAUAUUACGACCC | -0.35 ± 0.14 | -0.0588 ± 0.2 |
| ACACAGCAAUAUUACGAGAU | -3.79 ± 0.16 | -0.784 ± 0.11 |
| ACACAGCAAUAUUACGAGGA | -2.42 ± 0.2 | -1.66 ± 0.18 |
